Source: publication PMC10786891, “Massively parallel profiling of RNA-targeting CRISPR-Cas13d”
Changes are numbered by the printed parent chain. Numbers in names are those of the source.

T1: EsCas13d, nuclease-dead (Eubacterium siraeum, UniProt B0MS50, R295A;H300A;R849A;H854A)
T1 sequence: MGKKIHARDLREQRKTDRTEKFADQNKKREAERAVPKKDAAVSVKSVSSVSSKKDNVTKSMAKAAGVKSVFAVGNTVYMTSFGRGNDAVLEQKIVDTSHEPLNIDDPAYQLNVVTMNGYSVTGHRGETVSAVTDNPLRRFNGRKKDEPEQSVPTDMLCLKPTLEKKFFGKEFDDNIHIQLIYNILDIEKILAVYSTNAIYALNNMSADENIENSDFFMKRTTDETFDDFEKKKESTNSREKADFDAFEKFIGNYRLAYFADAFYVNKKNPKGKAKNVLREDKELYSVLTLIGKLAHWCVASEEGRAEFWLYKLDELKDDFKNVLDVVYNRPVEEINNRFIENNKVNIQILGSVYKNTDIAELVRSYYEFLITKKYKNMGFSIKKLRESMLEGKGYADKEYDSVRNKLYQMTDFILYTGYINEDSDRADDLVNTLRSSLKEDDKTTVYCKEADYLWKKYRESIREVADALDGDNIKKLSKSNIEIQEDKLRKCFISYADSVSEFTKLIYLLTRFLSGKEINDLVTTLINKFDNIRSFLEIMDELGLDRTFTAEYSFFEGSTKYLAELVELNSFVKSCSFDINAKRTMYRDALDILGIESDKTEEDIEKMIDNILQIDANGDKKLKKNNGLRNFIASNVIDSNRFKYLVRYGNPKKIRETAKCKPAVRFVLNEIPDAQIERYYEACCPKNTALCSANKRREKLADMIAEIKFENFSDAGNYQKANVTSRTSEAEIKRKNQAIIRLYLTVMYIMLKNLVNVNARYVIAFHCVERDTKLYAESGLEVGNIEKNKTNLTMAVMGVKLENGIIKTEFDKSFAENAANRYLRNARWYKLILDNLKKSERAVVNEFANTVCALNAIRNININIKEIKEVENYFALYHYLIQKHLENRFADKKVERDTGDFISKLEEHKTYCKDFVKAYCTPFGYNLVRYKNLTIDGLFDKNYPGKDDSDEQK

B1: target 3 G3U,G4C (mixed)
RNA 1: CACCCGUGCAAAAUUGCAGGGGUCUAAAACGACCUGAAUAUUUCAGAUCAAA
RNA 2: GGGAAUGGAUCCACAUCUACGAAUUCGUUUUUGAUCUGAAAUAUUCACUUCUGCAGAUCGGAAGAGCACACGU
B2: target 3 insA 3' of 17,insA 3' of 15 (mixed)
RNA 1: B1 RNA 1
RNA 2: GGGAAUGGAUCCACAUCUACGAAUUCGUUUUUGAUACUAGAAAUAUUCAGGUCUGCAGAUCGGAAGAGCACACGU
B3: target 3 G19A,U20G (mixed)
RNA 1: B1 RNA 1
RNA 2: B1 RNA 2 with U32G, G33A, C48G, U49G
B4: target 3 insU 3' of 11,insA 3' of 6 (mixed)
RNA 1: B1 RNA 1
RNA 2: GGGAAUGGAUCCACAUCUACGAAUUCGUUUUUGAUCUGAAAUUAUUCAAGGUCUGCAGAUCGGAAGAGCACACGU
B5: target 3 C6A,U22G (mixed)
RNA 1: B1 RNA 1
RNA 2: B1 RNA 2 with U30G, C46A, C48G, U49G
B6: target 3 insG 3' of 6,insC 3' of 5 (mixed)
RNA 1: B1 RNA 1
RNA 2: B4 RNA 2 with U43A, A44U, U46C, C47G, A49C
B7: target 3 U2G,U21A (mixed)
RNA 1: B1 RNA 1
RNA 2: B1 RNA 2 with U31A, C48G, U49G, U50G
B8: target 3 A9G,U21A (mixed)
RNA 1: B1 RNA 1
RNA 2: B1 RNA 2 with U31A, A43G, C48G, U49G
B9: target 3 insG 3' of 7,insG 3' of 6 (mixed)
RNA 1: B1 RNA 1
RNA 2: B4 RNA 2 with U43A, A44U, U46G, A48G
B10: target 3 G4C,A12U (mixed)
RNA 1: B1 RNA 1
RNA 2: B1 RNA 2 with A40U, U49G
B11: target 3 insG 3' of 9,insA 3' of 7 (mixed)
RNA 1: B1 RNA 1
RNA 2: B4 RNA 2 with U43A, A44G, C47A, A48C
B12: target 3 C1A,G3U (mixed)
RNA 1: B1 RNA 1
RNA 2: B1 RNA 2 with C48G, C51A
B13: target 3 del5,del6 (mixed)
RNA 1: B1 RNA 1
RNA 2: GGGAAUGGAUCCACAUCUACGAAUUCGUUUUUGAUCUGAAAUAUUGGUCUGCAGAUCGGAAGAGCACACGU
B14: target 3 G4C,U21A (mixed)
RNA 1: B1 RNA 1
RNA 2: B1 RNA 2 with U31A, U49G
B15: target 3 G4U,U8G (mixed)
RNA 1: B1 RNA 1
RNA 2: B1 RNA 2 with U44G, C48U, U49G
B16: target 3 insA 3' of 4,insA 3' of 3 (mixed)
RNA 1: B1 RNA 1
RNA 2: B4 RNA 2 with U43A, A44U, U46C, C47A, A48G, G51A
B17: target 3 insA 3' of 8,insC 3' of 4 (mixed)
RNA 1: B1 RNA 1
RNA 2: B4 RNA 2 with U43A, A44U, U45A, A49G, G50C
B18: target 3 C1A,U7A (mixed)
RNA 1: B1 RNA 1
RNA 2: B1 RNA 2 with U45A, C48G, U49G, C51A
B19: target 3 insC 3' of 2,insU 3' of 1 (mixed)
RNA 1: B1 RNA 1
RNA 2: GGGAAUGGAUCCACAUCUACGAAUUCGUUUUUGAUCUGAAAUAUUCAGGUCCUUGCAGAUCGGAAGAGCACACGU
B20: target 3 del4,del22 (mixed)
RNA 1: B1 RNA 1
RNA 2: GGGAAUGGAUCCACAUCUACGAAUUCGUUUUGAUCUGAAAUAUUCAGUCUGCAGAUCGGAAGAGCACACGU
B21: target 3 insC 3' of 7,insC 3' of 5 (mixed)
RNA 1: B1 RNA 1
RNA 2: B4 RNA 2 with U43A, A44U, U46C, A49C
B22: target 3 G3U,U22A (mixed)
RNA 1: B1 RNA 1
RNA 2: B1 RNA 2 with U30A, C48G
B23: target 3 insC 3' of 9,insU 3' of 4 (mixed)
RNA 1: B1 RNA 1
RNA 2: B4 RNA 2 with U43A, A44C, A49G, G50U
B24: target 3 A5G,U8G (mixed)
RNA 1: B1 RNA 1
RNA 2: B1 RNA 2 with U44G, A47G, C48G, U49G
B25: target 3 G4A (mixed)
RNA 1: B1 RNA 1
RNA 2: B1 RNA 2 with C48A, U49G
B26: target 3 G3U (mixed)
RNA 1: B1 RNA 1
RNA 2: B1 RNA 2 with C48G
B27: target 3 insA 3' of 21,insG 3' of 2 (mixed)
RNA 1: B1 RNA 1
RNA 2: GGGAAUGGAUCCACAUCUACGAAUUCGUUUUAUGAUCUGAAAUAUUCAGGUGCUGCAGAUCGGAAGAGCACACGU
B28: target 3 insA 3' of 22,insU 3' of 4 (mixed)
RNA 1: B1 RNA 1
RNA 2: B27 RNA 2 with U31A, A32U, G50U, U51G, G52U
B29: target 3 G4U,U7A (mixed)
RNA 1: B1 RNA 1
RNA 2: B1 RNA 2 with U45A, C48U, U49G
B30: target 1 insC 3' of 20 (mixed)
RNA 1: CACCCGUGCAAAAAUGCAGGGGUCUAAAACUGAGCGGAUAACCUCUCUAUGG
RNA 2: GGGAAUGGAUCCACAUCUACGAAUUCGUACCACUAGAGAGGUUAUCCGCUCACCGAGAUCGGAAGAGCACACGU
B31: target 1 U10G,A16C (mixed)
RNA 1: B30 RNA 1
RNA 2: GGGAAUGGAUCCACAUCUACGAAUUCGUACCAUAGCGAGGUGAUCCGCUCACCGAGAUCGGAAGAGCACACGU
B32: target 1 insU 3' of 17,insG 3' of 7 (mixed)
RNA 1: B30 RNA 1
RNA 2: GGGAAUGGAUCCACAUCUACGAAUUCGUACCAUAGUAGAGGUUAUCGCGCUCACCGAGAUCGGAAGAGCACACGU
B33: target 1 C2A,G13C (mixed)
RNA 1: B30 RNA 1
RNA 2: B31 RNA 2 with C36A, G39C, G42U, C50A

Molecular target: T1, EsCas13d, nuclease-dead
Test: crRNA (strand 1, pre-loaded); Mg2+; 40 mM Tris-HCl pH 7.5, 150 mM NaCl, 6 mM MgCl2, 1 mM DTT, 0.1% Tween-20, 0.2 mg/ml BSA; 25 C; 10 min per concentration, then washed
Conditions: tags: His6-TwinStrep-SUMO cleaved; N-terminal SNAP kept (SNAP-Surface 488); label: 3' end held by stalled T7 RNA polymerase

Which Kd does the source give for B1 here?
The Kd was 10.5 ± 1 nM.

B2 was tested. Which Kd did it give?
The Kd was 36.9 ± 8.1 nM.

Which Kd does the source give for B3 here?
Its Kd is 55 ± 8 nM.

For B4, which Kd is on record?
Its Kd is 63 ± 8.5 nM.

Which Kd does the source give for B5 here?
Its Kd is 108 ± 25 nM.

How did the Kd turn out when B6 was run?
The Kd was 11.4 ± 1.1 nM.

Which Kd does the source give for B7 here?
Its Kd is 36.5 ± 7 nM.

For B8, which Kd is on record?
Its Kd is 95.5 ± 22.5 nM.

Which Kd does the source give for B9 here?
The Kd was 24.9 ± 1.9 nM.

How did the Kd turn out when B10 was run?
The Kd was 110 ± 45 nM.

How did the Kd turn out when B11 was run?
The Kd was 43.5 ± 5.5 nM.

How did the Kd turn out when B12 was run?
Its Kd is ~75 nM.

Which Kd does the source give for B13 here?
Its Kd is 72 ± 9 nM.

B14 was tested. Which Kd did it give?
The Kd was 87 ± 16 nM.

With B15 as the binder, how does the Kd read?
The Kd was 16.4 ± 2.35 nM.

For B16, which Kd is on record?
Its Kd is 50 ± 7.5 nM.

How did the Kd turn out when B17 was run?
Its Kd is 61.5 ± 9.5 nM.

For B18, which Kd is on record?
Its Kd is 28.5 ± 14 nM.

B19 was tested. Which Kd did it give?
Its Kd is 82.5 ± 27.5 nM.

For B20, which Kd is on record?
The Kd was 16.6 ± 2.3 nM.

With B21 as the binder, how does the Kd read?
The Kd was 108 ± 18.5 nM.

B22 was tested. Which Kd did it give?
The Kd was 20.6 ± 2.75 nM.

For B23, which Kd is on record?
Its Kd is 41.5 ± 6 nM.

For B24, which Kd is on record?
The Kd was 65.5 ± 7.5 nM.

Which Kd does the source give for B25 here?
Its Kd is 4.89 ± 0.35 nM.

With B26 as the binder, how does the Kd read?
The Kd was 22.9 ± 2.2 nM.

Which Kd does the source give for B27 here?
Its Kd is 39.8 ± 3.75 nM.

B28 was tested. Which Kd did it give?
The Kd was 4.56 ± 0.52 nM.

How did the Kd turn out when B29 was run?
The Kd was 10.4 ± 1.4 nM.

Which Kd does the source give for B30 here?
Its Kd is 6.4 ± 0.4 nM.

How did the Kd turn out when B31 was run?
The Kd was 57 ± 10 nM.

With B32 as the binder, how does the Kd read?
Its Kd is 13.7 ± 0.6 nM.

B33 was tested. Which Kd did it give?
The Kd was 50 ± 5 nM.
